Data taken from PMC12794319 (Biochemical Journal, 2025).

Legend:
[1] = molecular target: T1, Syrian hamster wildtype TMPRSS2 ectodomain (activated, two-chain) (Syrian hamster (Mesocricetus auratus), UniProt A0A1U8C7X1 108-254; A0A1U8C7X1 255-491); test: enzyme inhibition kinetics (tight-binding inhibition, fit to the Morrison equation); 50 pM human or hamster TMPRSS2 incubated with a 2/3-fold serial dilution of HAI-2 (300 to 5.2 pM) for 16 hours at room temperature; rates on the fluorogenic substrate Boc-Gln-Ala-Arg-AMC; equilibrium inhibitory constant; triplicate; settings: both partners purified
T1 construct: TMPRSS2, Syrian hamster (Mesocricetus auratus), UniProt printed as 'A0A1U8C7 × 1'; N-terminal non-catalytic part of the ectodomain construct 108-491 up to the arginine of the scissile bond, R254; Expressed as one chain 108-491 with an Ig kappa leader; also called Hamster TMPRSS2; Ham TMPRSS2; source: FreeStyle 293 F (HEK293F), co-transfected with full-length HAI-2; purified from the supernatant …

[2] = molecular target: T2, human wildtype TMPRSS2 ectodomain (activated, two-chain) (human, UniProt O15393-1 107-255; O15393-1 256-492); test: as above; settings: both partners purified
T2 construct: TMPRSS2, human, UniProt O15393-1; held to the SP domain by a disulfide bond after cleavage; Expressed as one chain 107-492 with an Ig kappa leader; also called Human TMPRSS2; Hu TMPRSS2; source: FreeStyle 293 F (HEK293F), co-transfected with full-length HAI-2; purified from the supernatant (G25, Ni-NTA IMAC, size-exclusion chromatography)
T2 sequence (O15393 107-255, chain 1 of 2): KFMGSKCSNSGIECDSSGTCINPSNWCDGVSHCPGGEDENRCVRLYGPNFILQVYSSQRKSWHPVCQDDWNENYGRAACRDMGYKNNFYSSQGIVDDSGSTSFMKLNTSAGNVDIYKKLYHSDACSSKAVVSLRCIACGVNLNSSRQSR
T2 sequence (O15393 256-492, chain 2 of 2): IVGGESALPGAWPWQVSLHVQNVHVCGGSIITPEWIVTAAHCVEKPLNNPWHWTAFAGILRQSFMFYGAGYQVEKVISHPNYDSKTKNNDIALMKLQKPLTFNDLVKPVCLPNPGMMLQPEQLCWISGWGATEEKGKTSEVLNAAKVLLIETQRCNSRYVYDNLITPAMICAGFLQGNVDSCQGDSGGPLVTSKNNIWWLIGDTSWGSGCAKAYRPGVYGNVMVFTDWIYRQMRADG

T1 sequence (chain, as listed by the source, chain 1 of 2): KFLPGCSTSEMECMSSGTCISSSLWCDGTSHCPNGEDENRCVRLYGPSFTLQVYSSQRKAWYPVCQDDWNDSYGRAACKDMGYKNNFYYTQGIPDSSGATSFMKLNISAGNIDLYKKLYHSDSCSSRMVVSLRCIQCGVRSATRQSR
T1 sequence (chain, as listed by the source, chain 2 of 2): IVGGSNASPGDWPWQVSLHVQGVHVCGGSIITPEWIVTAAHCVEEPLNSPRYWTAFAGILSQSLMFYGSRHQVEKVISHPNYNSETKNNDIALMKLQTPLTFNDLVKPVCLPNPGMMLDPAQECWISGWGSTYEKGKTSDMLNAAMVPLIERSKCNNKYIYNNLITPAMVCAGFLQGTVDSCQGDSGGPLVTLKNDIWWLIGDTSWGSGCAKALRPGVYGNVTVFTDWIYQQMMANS

B1: human HAI-2 (hepatocyte growth factor activator inhibitor-2) ectodomain (domain or fragment, UniProt O43291-1 36-196, looked up)
chain: DFCLVSKVVGRCRASMPRWWYNVTDGSCQLFVYGGCDGNSNNYLTKEECLKKCATVTENATGDLATSRNAADSSVPSAPRRQDSEDHSSDMFNYEEYCTANAVTGPCRASFPRWYFDVERNSCNNFIYGGCRGNKNSYRSEEACMLRCFRQQENPPLPLGS
notes: source: FreeStyle 293 F (HEK293F), pcDNA3.1; purified (Ni-NTA IMAC, size-exclusion chromatography)
Ki [1]: 0.7 pM | Ki [2]: 4.6 pM
